Three molecules from article PMC6312279, “Characterization of a protozoan Phosducin-like protein-3 (PhLP-3) reveals conserved redox activity” (PLoS ONE, 2018) can be followed below.

Experiment [1] has as its target T1, HsPhLP-3 (Homo sapiens, UniProt O14530).
T1 construct: gene TXNDC9
T1 sequence (O14530 1-226): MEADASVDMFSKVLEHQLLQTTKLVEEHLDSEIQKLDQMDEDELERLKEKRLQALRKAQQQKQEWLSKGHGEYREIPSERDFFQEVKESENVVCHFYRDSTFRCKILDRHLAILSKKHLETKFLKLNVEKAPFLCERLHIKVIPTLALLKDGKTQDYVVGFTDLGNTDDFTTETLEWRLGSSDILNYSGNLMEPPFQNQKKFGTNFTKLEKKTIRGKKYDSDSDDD
Kind of experiment: thioredoxin-coupled NADPH oxidation assay, […] nm. Conditions: thioredoxin system/NADPH as reductant, millimolar TBHP needed; data not shown separately. Format: biochemical.

Experiment [2] deals with T2, PbPhLP-3 (Plasmodium berghei, UniProt A0A509AN16).
T2 construct: gene PBANKA_1204800
T2 sequence (A0A509AN16 1-193): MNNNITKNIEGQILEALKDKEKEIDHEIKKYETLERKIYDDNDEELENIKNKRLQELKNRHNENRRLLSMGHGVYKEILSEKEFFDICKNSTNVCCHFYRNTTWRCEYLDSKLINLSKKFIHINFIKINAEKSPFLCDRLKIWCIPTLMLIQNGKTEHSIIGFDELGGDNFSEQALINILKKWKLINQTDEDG
The experiment is described as follows: thioredoxin-coupled NADPH oxidation assay, […] nm. Type of experiment: biochemical. Conditions: PbTrxR/PbTrx-1/NADPH as reductant, pH 7.4, 25 °C; linear, non-saturating up to millimolar TBHP, authors suggest non-enzymatic mechanism.

In experiment [3] the target is Plasmodium berghei Phosducin-like protein-3 (PbPhLP-3) (Plasmodium berghei).
In experiment [4] the target is T3, human PhLP-3 (HsPhLP-3; thioredoxin-domain containing protein 9, TXNDC9) (human) (UniProt O14530).
T3 sequence: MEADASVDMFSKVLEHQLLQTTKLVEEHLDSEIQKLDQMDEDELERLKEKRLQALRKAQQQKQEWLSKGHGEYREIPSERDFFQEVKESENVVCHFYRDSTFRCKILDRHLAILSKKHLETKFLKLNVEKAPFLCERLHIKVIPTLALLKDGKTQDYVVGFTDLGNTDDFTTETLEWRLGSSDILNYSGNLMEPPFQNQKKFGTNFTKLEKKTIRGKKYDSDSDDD

Consider `CC(C)(C)OO` [TBHP], for which the “thioredoxin-coupled NADPH oxidation assay, 340 nm” value in experiment [1] was “both PhLP-3 proteins investigated here reduce the oxidative compound TBHP”; in experiment [2], “reduction of the compound was observed in the presence of PbPhLP-3”.
Take “Plasmodium berghei thioredoxin-1 (PbTrx-1) (natural protein)”: in experiment [3], the KM for PbTrx-1 in the Trx-reduction assay (initial velocities of NADPH oxidation at PbTrx-1 0.5–50 μM) is 5.82 µM, the Vmax in the Trx-reduction assay (initial velocities of NADPH oxidation at PbTrx-1 0.5–50 μM) stood at 10.1 µM/min, the kcat in the Trx-reduction assay (initial velocities of NADPH oxidation at PbTrx-1 0.5–50 μM) is 0.0167 s⁻¹ and the kcat/KM (rate constant) in the Trx-reduction assay stood at 2830 M⁻¹ s⁻¹.

B1: human Trx-1 (HsTrx-1) (natural protein)
chain: MVKQIESKTAFQEALDAAGDKLVVVDFSATWCGPCKMIKPFFHSLSEKYSNVIFLEVDVDDCQDVASECEVKCMPTFQFFKKGQKVGEFSGANKEKLEATINELV
Take B1: in experiment [4], the KM in the Trx-reduction assay with PbTrxR, HsTrx-1 and HsPhLP-3 was 6.53 µM; the Vmax in the Trx-reduction assay with PbTrxR, HsTrx-1 and HsPhLP-3 was 12.6 µM/min; the kcat in the Trx-reduction assay with PbTrxR, HsTrx-1 and HsPhLP-3 stood at 0.021 s⁻¹; the kcat/KM (rate constant) in the Trx-reduction assay with PbTrxR, HsTrx-1 and HsPhLP-3 is 3170 M⁻¹ s⁻¹.
